Data from IntAct's records for PubMed 31515488.

B1: Germ cell-less protein-like 1 (Homo sapiens), Q96IK5 (parent)
chain: MGSLSSRVLRQPRPALAQQAQGARAGGSARRPDTGDDAAGHGFCYCAGSHKRKRSSGSFCYCHPDSETDEDEEEGDEQQRLLNTPRRKKLKSTSKYIYQTLFLNGENSDIKICALGEEWSLHKIYLCQSGYFSSMFSGSWKESSMNIIELEIPDQNIDVEALQVAFGSLYRDDVLIKPSRVVAILAAACLLQLDGLIQQCGETMKETVNVKTVCGYYTSAGTYGLDSVKKKCLEWLLNNLMTHQNVELFKELSINVMKQLIGSSNLFVMQVEMDIYTALKKWMFLQLVPSWNGSLKQLLTETDVWFSKQRKDFEGMAFLETEQGKPFVSVFRHLRLQYIISDLASARIIEQDAVVPSEWLSSVYKQQWFAMLRAEQDSEVGPQEINKEELEGNSMRCGRKLAKDGEYCWRWTGFNFGFDLLVTYTNRYIIFKRNTLNQPCSGSVSLQPRRSIAFRLRLASFDSSGKLICSRTTGYQILTLEKDQEQVVMNLDSRLLIFPLYICCNFLYISPEKKN
partner: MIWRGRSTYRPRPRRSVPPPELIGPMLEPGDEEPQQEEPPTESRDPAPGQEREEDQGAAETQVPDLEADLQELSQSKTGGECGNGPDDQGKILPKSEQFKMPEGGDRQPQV
B2: Protein FAM9B (Homo sapiens), Q8IZU0 (parent)
chain: MAAWGKKHAGKDPVRDECEERNRFTETREEDVTDEHGEREPFAETDEHTGANTKKPEDTAEDLTAKRKRMKMDKTCSKTKNKSKHALRKKQLKRQKRDYIHSLKLLNVLEEYITDEQKEEEEEEGEEEELIRIFQEQQKKWQQYRSVRRERLKEMKLLRDQFVKALEDFEDLCDRVFSDEDSELDN
partner: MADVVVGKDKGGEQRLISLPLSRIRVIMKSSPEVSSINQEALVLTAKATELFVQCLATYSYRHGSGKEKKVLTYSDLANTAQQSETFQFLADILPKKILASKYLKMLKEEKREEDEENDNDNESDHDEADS
B3: NF-kappa-B inhibitor delta (Homo sapiens), Q8NI38 (parent)
chain: MEAGPWRVSAPPSGPPQFPAVVPGPSLEVARAHMLALGPQQLLAQDEEGDTLLHLFAARGLRWAAYAAAEVLQVYRRLDIREHKGKTPLLVAAAANQPLIVEDLLNLGAEPNAADHQGRSVLHVAATYGLPGVLLAVLNSGVQVDLEARDFEGLTPLHTAILALNVAMRPSDLCPRVLSTQARDRLDCVHMLLQMGANHTSQEIKSNKTVLHLAVQAANPTLVQLLLELPRGDLRTFVNMKAHGNTALHMAAALPPGPAQEAIVRHLLAAGADPTLRNLENEQPVHLLRPGPGPEGLRQLLKRSRVAPPGLSS
partner: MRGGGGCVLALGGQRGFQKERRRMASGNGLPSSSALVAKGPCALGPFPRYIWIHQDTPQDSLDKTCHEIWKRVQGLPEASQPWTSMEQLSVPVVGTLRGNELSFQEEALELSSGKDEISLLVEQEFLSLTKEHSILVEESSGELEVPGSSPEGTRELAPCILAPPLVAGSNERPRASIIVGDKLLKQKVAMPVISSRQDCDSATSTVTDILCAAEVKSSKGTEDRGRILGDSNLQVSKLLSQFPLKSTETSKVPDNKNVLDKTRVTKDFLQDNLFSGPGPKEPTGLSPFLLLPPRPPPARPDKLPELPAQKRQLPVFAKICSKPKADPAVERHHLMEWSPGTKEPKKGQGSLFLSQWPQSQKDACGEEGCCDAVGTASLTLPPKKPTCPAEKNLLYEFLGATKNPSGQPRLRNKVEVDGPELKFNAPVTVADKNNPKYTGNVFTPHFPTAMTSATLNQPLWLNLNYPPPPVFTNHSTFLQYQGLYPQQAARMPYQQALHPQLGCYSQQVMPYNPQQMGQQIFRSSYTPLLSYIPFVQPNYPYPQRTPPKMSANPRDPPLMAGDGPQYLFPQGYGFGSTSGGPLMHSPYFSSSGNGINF
B4: Protein LDOC1 (Homo sapiens), O95751 (parent)
chain: MVDELVLLLHALLMRHRALSIENSQLMEQLRLLVCERASLLRQVRPPSCPVPFPETFNGESSRLPEFIVQTASYMLVNENRFCNDAMKVAFLISLLTGEAEEWVVPYIEMDSPILGDYRAFLDEMKQCFGWDDDEDDDDEEEEDDY
partner: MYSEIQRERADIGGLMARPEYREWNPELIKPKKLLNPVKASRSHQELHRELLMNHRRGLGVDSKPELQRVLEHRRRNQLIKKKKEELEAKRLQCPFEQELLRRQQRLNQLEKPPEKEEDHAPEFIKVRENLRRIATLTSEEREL
B5: Fibronectin type III and SPRY domain-containing protein 2 (Homo sapiens), A1L4K1 (parent)
chain: MEEESGEELGLDRSTPKDFHFYHMDLYDSEDRLHLFPEENTRMRKVVQAEMANESRGAGDGKAQRDLQEEVDELVHLYGLEDDHELGDEFVDENIPRTGVSEYPPYMMKRRDPAREQRDWRLSGEAAEAEDLGFGGWGSAGQCQDLREAYRYTHGRASEEYECYVIPEEEDEEEAADVFCVTCKTPIRAFQKVFDEHKEHEVIPLNEALESAKDEIHKNMYKLEKQIIEMENFANHLEEVFITVEENFGKQEQNFESHYNEILETLAQKYEEKIQALGEKKKEKLEALYGQLVSCGENLDTCKELMETIEEMCHEEKVDFIKDAVAMADRLGKFLKTKTDVEISAQPEFEDQTLDFSDVEQLMGSINTIPAPSAPVINPQVPNSATGSSVRVCWSLYSDDTVESYQLSYRPVQDSSPGTDQAEFTVTVKETYCSVTNLVPNTQYEFWVTAHNRAGPSPSSERAVYMTAPSPPIIKTKEIRSCEEAVLICWESGNLNPVDSYTVELTQAESPEASGVTESVVGIPTCESVVQLQPGRSYIIYVRALNMGGPSVRSEPATVHTIGSYFRLNKDTCHPWLTISEDGLTAVRSERRTPARELSPSDTHFTRCVAVMGNLIPVRGHHYWEVEVDEHLDYRVGVAFADVRKQEDLGANCLSWCMRHTFASSRHKYEFLHNRTTPDIRITVPPKKIGILLDYEHSKLSFFNVDLSQHLYTFSCQLHEFVHPCFSLEKPGCLKVHNGISMPKHVTFY
B6: Rho guanine nucleotide exchange factor 3 (Homo sapiens), Q9NR81 (parent)
chain: MVAKDYPFYLTVKRANCSLELPPASGPAKDAEEPSNKRVKPLSRVTSLANLIPPVKATPLKRFSQTLQRSISFRSESRPDILAPRPWSRNAAPSSTKRRDSKLWSETFDVCVNQMLTSKEIKRQEAIFELSQGEEDLIEDLKLAKKAYHDPMLKLSIMTEQELNQIFGTLDSLIPLHEELLSQLRDVRKPDGSTEHVGPILVGWLPCLSSYDSYCSNQVAAKALLDHKKQDHRVQDFLQRCLESPFSRKLDLWNFLDIPRSRLVKYPLLLREILRHTPNDNPDQQHLEEAINIIQGIVAEINTKTGESECRYYKERLLYLEEGQKDSLIDSSRVLCCHGELKNNRGVKLHVFLFQEVLVITRAVTHNEQLCYQLYRQPIPVKDLLLEDLQDGEVRLGGSLRGAFSNNERIKNFFRVSFKNGSQSQTHSLQANDTFNKQQWLNCIRQAKETVLCAAGQAGVLDSEGSFLNPTTGSRELQGETKLEQMDQSDSESDCSMDTSEVSLDCERMEQTDSSCGNSRHGESNV
partner: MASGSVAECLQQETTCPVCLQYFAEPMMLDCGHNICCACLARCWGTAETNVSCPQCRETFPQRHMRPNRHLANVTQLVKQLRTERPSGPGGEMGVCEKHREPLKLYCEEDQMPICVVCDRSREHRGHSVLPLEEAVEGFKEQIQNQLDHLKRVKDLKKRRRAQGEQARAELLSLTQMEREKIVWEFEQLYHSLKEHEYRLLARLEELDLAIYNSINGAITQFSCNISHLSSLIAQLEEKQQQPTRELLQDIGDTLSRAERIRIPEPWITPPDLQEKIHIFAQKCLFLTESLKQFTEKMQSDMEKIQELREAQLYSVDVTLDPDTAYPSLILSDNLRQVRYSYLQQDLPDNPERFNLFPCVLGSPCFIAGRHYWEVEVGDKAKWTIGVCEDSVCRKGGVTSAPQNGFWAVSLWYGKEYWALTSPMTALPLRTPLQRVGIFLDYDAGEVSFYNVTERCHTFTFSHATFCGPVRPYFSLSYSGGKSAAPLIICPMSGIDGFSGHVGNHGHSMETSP
B7: LIM/homeobox protein Lhx4 (Homo sapiens), Q969G2 (parent)
chain: MMQSATVPAEGAVKGLPEMLGVPMQQIPQCAGCNQHILDKFILKVLDRHWHSSCLKCADCQMQLADRCFSRAGSVYCKEDFFKRFGTKCTACQQGIPPTQVVRKAQDFVYHLHCFACIICNRQLATGDEFYLMEDGRLVCKEDYETAKQNDDSEAGAKRPRTTITAKQLETLKNAYKNSPKPARHVREQLSSETGLDMRVVQVWFQNRRAKEKRLKKDAGRHRWGQFYKSVKRSRGSSKQEKESSAEDCGVSDSELSFREDQILSELGHTNRIYGNVGDVTGGQLMNGSFSMDGTGQSYQDLRDGSPYGIPQSPSSISSLPSHAPLLNGLDYTVDSNLGIIAHAGQGVSQTLRAMAGGPTSDISTGSSVGYPDFPTSPGSWLDEMDHPPF
partner: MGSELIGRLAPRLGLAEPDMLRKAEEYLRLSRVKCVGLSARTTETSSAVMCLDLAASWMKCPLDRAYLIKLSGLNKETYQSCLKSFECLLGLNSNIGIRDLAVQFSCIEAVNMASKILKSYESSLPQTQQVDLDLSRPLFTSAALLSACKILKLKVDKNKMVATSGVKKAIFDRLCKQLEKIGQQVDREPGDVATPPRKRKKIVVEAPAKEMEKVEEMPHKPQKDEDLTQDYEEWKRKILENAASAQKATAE

Variants of: B1
Conditions: with xage3_human XAGE3, Q8WTP9

effect of a mutation on the interaction | Variant
with no effect | K123R
with no effect | I340V
with no effect | R457H
with no effect | E77K
with no effect | R449Q

Variants of: B2
Conditions: with chrc1_human CHRAC1, Q9NRG0

effect of a mutation on the interaction | Variant
with no effect | R23H

Variants of: B3
Conditions: with ca094_human C1orf94, Q6P1W5

effect of a mutation on the interaction | Variant
with no effect | V29A

Variants of: B4
Conditions: with FAM107A

effect of a mutation on the interaction | Variant
disrupting interaction strength | L12H

Variants of: B5
Conditions: with cor1a_human CORO1A

effect of a mutation on the interaction | Variant
with no effect | K333T
with no effect | E720K

Variants of: B6
Conditions: with tri27_human TRIM27, P14373

effect of a mutation on the interaction | Variant
with no effect | N432S

Variants of: B7
Conditions: with orc6_human ORC6, Q9Y5N6

effect of a mutation on the interaction | Variant
with no effect | N328S
